Measurements taken from patent US11814435B2, “Therapeutic antibodies and their uses” (PFIZER INC., priority 2015, dated 2023).

Tested on: primary myeloma cells from myeloma patients
Assay: T cell mediated killing of primary myeloma patient samples by anti-BCMA/CD3 bispecific (flow cytometry live cell count)
Assay type: cell-based, human
Conditions: Patient MM00146; anti-BCMA_h2B4 bispecific; five days after treatment
Description: Human anti-BCMA (P5A2, A02_Rd4_0.6 nM_C01, A02_Rd4_6 nM_C16, Combo_Rd4_0.6 nM_C29, and P6E01 L3PY/H3TAQ) and human anti-CD3 (h2B4) antibodies were expressed as human IgG2dA engineered with EEEE or RRRR for bispecific exchange as describe in Example 8.
Cells were treated with 10-fold serially diluted bispecific antibody. […] EC50 was calculated by Prism software.

B1: P5A2: anti-BCMA_H2B4 bispecific, human IgG2dA: anti-BCMA arm P5A2, anti-CD3 arm H2B4 (antibody, V domains shown)
VH: EVQLLESGGGLVQPGGSLRLSCAASGFTFSSYAMNWVRQAPGKGLEWVSAISDSGGSTYYADSVKGRFTISRDNSKNTLYLQMNSLRAEDTAVYYCARYWPMDIWGQGTLVTVSS
VL: EIVLTQSPGTLSLSPGERATLSCRASQSVSSSYLAWYQQKPGQAPRLLMYDASIRATGIPDRFSGSGSGTDFTLTISRLEPEDFAVYYCQQYGSWPLTFGQGTKVEIK
EC50: 0.946 nM
